Structures are written as SMILES. Where a SMILES comes first, the peptide text is derived from it. The star is where a group is joined. X1 = COc1ccc2c3c1O[C@H]1C(O*)=CC[C@H]4[C@@H](C2)N(C)CC[C@]314

The nature of series [1]: Oral bioavailability of hydrocodone conjugates in rats, LC/MS/MS. The following applies: for Percent Decrease 1 mg/kg vs. 5 mg/kg AUC / Percent Decrease 1 mg/kg vs. 5 mg/kg Cmax: oral bioavailability; for hydrocodone plus hydromorphone concentration / AUC (ng/ml h) 0-8 h / Cmax / Percent HC (AUC) / Percent HC (Cmax) / Peak levels and bioavailability: oral; for AUC (ng/ml h) 0-8 h / Cmax: hydrocodone plus hydromorphone; for Percent HC (AUC) / Percent HC (Cmax): relative to hydrocodone bitartrate; for Peak levels and bioavailability: rat, 5 mg/kg.

A short description of series [2]: Intranasal bioavailability of hydrocodone conjugates in rats, LC/MS/MS. As to conditions: intranasal, 1 mg/kg dose; for AUC (ng/ml h) 0-1 h / Cmax: hydrocodone plus hydromorphone; for Percent HC (AUC) / Percent HC (Cmax): relative to hydrocodone bitartrate.
Series [3] can be described thus: Oral pharmacokinetics in rats, plasma d-amphetamine by ELISA. As to conditions: Oral, relative to amphetamine (first value where two are given). A general note: ELISA stands for enzyme-linked immunosorbent assay.
Series [4] is described as follows: Intravenous bioavailability of hydrocodone conjugates in rats, LC/MS/MS. As to conditions: intravenous, 1 mg/kg dose; for AUC (ng/ml h) 0-1 h / Cmax: hydrocodone plus hydromorphone; for Percent HC (AUC) / Percent HC (Cmax): relative to hydrocodone bitartrate.

For orientation: Cmax means the maximum level reached in the sampled fluid or tissue. For `CC[C@H](C)[C@H](NC(=O)[C@H](CC(=O)O)NC(=O)[C@@H](N)CC(=O)O)C(=O)OC1=CC[C@H]2[C@H]3Cc4ccc(OC)c5c4[C@@]2(CCN3C)[C@H]1O5` [DDI-HC, Asp-Asp-Ile-Hydrocodone], in series [1], the “Percent Decrease 1 mg/kg vs. 5 mg/kg AUC” value was determined as 9%. The “Percent Decrease 1 mg/kg vs. 5 mg/kg Cmax” value in series [1] is given as 9%. The “hydrocodone plus hydromorphone concentration” value in series [1] (1 mg/kg dose, 0.5 Hours) is 14.9 ng/mL; in series [1] (1 mg/kg dose, 1.5 Hours) it was 5 ng/mL; in series [1] (1 mg/kg dose, 3 Hours), 0 ng/mL; in series [1] (1 mg/kg dose, 5 Hours), 0 ng/mL; in series [1] (1 mg/kg dose, 8 Hours), 0 ng/mL; in series [1] (5 mg/kg dose, 0.5 Hours), 115 ng/mL. In addition, the “hydrocodone plus hydromorphone concentration” value worked out at 19 ng/mL in series [1] (5 mg/kg dose, 1.5 Hours); 11 ng/mL in series [1] (5 mg/kg dose, 3 Hours); 4 ng/mL in series [1] (5 mg/kg dose, 5 Hours); 3.1 ng/mL in series [1] (5 mg/kg dose, 8 Hours); 281 ng/mL in series [2] (5 Minutes); 121 ng/mL in series [2] (15 Minutes). For the same compound, the “hydrocodone plus hydromorphone concentration” value in series [2] (30 Minutes) was 64 ng/mL; in series [2] (60 Minutes), 16 ng/mL. Also, the “AUC (ng/ml h) 0-8 h” value worked out at 17.4 ng·h/mL in series [1] (1 mg/kg dose) and 145 ng·h/mL in series [1] (5 mg/kg dose). Also, the Cmax was found to be 14.9 ng/mL in series [1] (1 mg/kg dose), 115 ng/mL in series [1] (5 mg/kg dose) and 281 ng/mL in series [2]. Further, the “Percent HC (AUC)” value in series [1] (1 mg/kg dose) is recorded as 124%; in series [1] (5 mg/kg dose) it was 113%; in series [2], 31%. Moreover, the “Percent HC (Cmax)” value turned out to be 173% in series [1] (1 mg/kg dose), 158% in series [1] (5 mg/kg dose) and 51% in series [2]. The “Peak levels and bioavailability” value in series [1] is “substantially decreased”. The “AUC (ng/ml h) 0-1 h” value in series [2] was determined as 88 ng·h/mL.
With `CC(Cc1ccccc1)NC(=O)C(N)CCC(=O)O` (centres unmarked) [E-Amp], in series [3], the “Percent AUC” value is given as 73% and the “Percent Cmax” value was found to be 95%.
Taken in the same sequence, the figures for `CC(Cc1ccccc1)NC(=O)[C@H](CCC(=O)O)NC(=O)[C@@H](N)CCC(=O)O` (some centres unmarked) [EE-Amp] were 26% and 74%.
The matching figures for `CC(Cc1ccccc1)NC(=O)[C@H](Cc1ccccc1)NC(=O)[C@H](CCC(=O)O)NC(=O)[C@@H](N)CCC(=O)O` (some centres unmarked) [EEF-Amp]: 42% and 73%.
With `COc1ccc2c3c1O[C@H]1C(OC(=O)[C@H](Cc4ccccc4)NC(=O)[C@H](Cc4ccccc4)NC(=O)[C@H](Cc4ccccc4)NC(=O)[C@H](CCC(=O)O)NC(=O)[C@@H](N)CCC(=O)O)=CC[C@H]4[C@@H](C2)N(C)CC[C@]314` [EEFFF[SEQ ID NO: 3]-HC, Glu-Glu-Phe-Phe-Phe[SEQ ID NO: 3]-Hydrocodone] (H-EEFFF-X1), the “hydrocodone plus hydromorphone concentration” value was determined as 11.3 ng/mL in series [1] (1 mg/kg dose, 0.5 Hours); 4.1 ng/mL in series [1] (1 mg/kg dose, 1.5 Hours); 1.2 ng/mL in series [1] (1 mg/kg dose, 3 Hours); 1.2 ng/mL in series [1] (1 mg/kg dose, 5 Hours); 1.2 ng/mL in series [1] (1 mg/kg dose, 8 Hours); 135 ng/mL in series [4] (5 Minutes). The “hydrocodone plus hydromorphone concentration” value came to 77 ng/mL in series [4] (15 Minutes); 140 ng/mL in series [4] (30 Minutes); 85 ng/mL in series [4] (60 Minutes); 34 ng/mL in series [2] (5 Minutes); 21 ng/mL in series [2] (15 Minutes); 24 ng/mL in series [2] (30 Minutes). For the same compound, the “hydrocodone plus hydromorphone concentration” value in series [2] (60 Minutes) worked out at 15 ng/mL. For the same compound, the “AUC (ng/ml h) 0-8 h” value in series [1] (1 mg/kg dose) was found to be 20.7 ng·h/mL. Besides, the Cmax in series [1] (1 mg/kg dose) came to 11.3 ng/mL; in series [4] it was 135 ng/mL; in series [2], 34 ng/mL. The results for the “Percent HC (AUC)” value in series [1] (1 mg/kg dose), in series [4] and in series [2] were 108%, 62% and 14%, respectively. Further, the results for the “Percent HC (Cmax)” value in series [1] (1 mg/kg dose), in series [4] and in series [2] were 119%, 75% and 13%, respectively. Also, the “AUC (ng/ml h) 0-1 h” value was found to be 107 ng·h/mL in series [4] and 21 ng·h/mL in series [2].
`CC[C@H](C)[C@H](NC(=O)[C@H](Cc1ccccc1)NC(=O)[C@H](Cc1ccccc1)NC(=O)[C@H](CCC(=O)O)NC(=O)[C@@H](N)CCC(=O)O)C(=O)OC1=CC[C@H]2[C@H]3Cc4ccc(OC)c5c4[C@@]2(CCN3C)[C@H]1O5` [EEFFI[SEQ ID NO: 5]-HC, Glu-Glu-Phe-Phe-Ile[SEQ ID NO: 5]-Hydrocodone] (H-EEFFI-X1): the “Percent Decrease 1 mg/kg vs. 5 mg/kg AUC” value in series [1] is reported as 70%. Also, in series [1], the “Percent Decrease 1 mg/kg vs. 5 mg/kg Cmax” value is reported as 65%. The “hydrocodone plus hydromorphone concentration” value was 12.9 ng/mL in series [1] (1 mg/kg dose, 0.5 Hours); 5.2 ng/mL in series [1] (1 mg/kg dose, 1.5 Hours); 4.2 ng/mL in series [1] (1 mg/kg dose, 3 Hours); 0 ng/mL in series [1] (1 mg/kg dose, 5 Hours); 1.6 ng/mL in series [1] (1 mg/kg dose, 8 Hours); 44 ng/mL in series [1] (5 mg/kg dose, 0.5 Hours). Also, the “hydrocodone plus hydromorphone concentration” value is 6.5 ng/mL in series [1] (5 mg/kg dose, 1.5 Hours); 5.7 ng/mL in series [1] (5 mg/kg dose, 3 Hours); 4.2 ng/mL in series [1] (5 mg/kg dose, 5 Hours); 4.5 ng/mL in series [1] (5 mg/kg dose, 8 Hours); 89 ng/mL in series [4] (5 Minutes); 76 ng/mL in series [4] (15 Minutes). In addition, the “hydrocodone plus hydromorphone concentration” value in series [4] (30 Minutes) was determined as 78 ng/mL; in series [4] (60 Minutes), 66 ng/mL. In addition, the “AUC (ng/ml h) 0-8 h” value in series [1] (1 mg/kg dose) amounted to 25.8 ng·h/mL; in series [1] (5 mg/kg dose), 68 ng·h/mL. Moreover, the maximum concentration (Cmax) in series [1] (1 mg/kg dose) was 12.9 ng/mL; in series [1] (5 mg/kg dose), 44 ng/mL; in series [4], 89 ng/mL. The “Percent HC (AUC)” value in series [1] (1 mg/kg dose) was determined as 135%; in series [1] (5 mg/kg dose), 41%; in series [4], 38%. The “Percent HC (Cmax)” value is 136% in series [1] (1 mg/kg dose), 47% in series [1] (5 mg/kg dose) and 44% in series [4]. Further, the “Peak levels and bioavailability” value in series [1] was “substantially decreased”. For the same compound, the “AUC (ng/ml h) 0-1 h” value in series [4] stood at 66 ng·h/mL.
`CC[C@H](C)[C@H](NC(=O)[C@H](Cc1ccccc1)NC(=O)[C@H](Cc1ccccc1)NC(=O)[C@H](Cc1ccc(O)cc1)NC(=O)[C@@H](N)Cc1ccc(O)cc1)C(=O)OC1=CC[C@H]2[C@H]3Cc4ccc(OC)c5c4[C@@]2(CCN3C)[C@H]1O5` [YYFFI[SEQ ID NO: 3]-HC] (H-YYFFI-X1): the “hydrocodone plus hydromorphone concentration” value in series [2] (5 Minutes) stood at 28 ng/mL. In series [2] (15 Minutes), the “hydrocodone plus hydromorphone concentration” value is 27 ng/mL. Moreover, the “hydrocodone plus hydromorphone concentration” value in series [2] (30 Minutes) was found to be 16 ng/mL. For the same compound, the “hydrocodone plus hydromorphone concentration” value in series [2] (60 Minutes) is 21 ng/mL. In addition, in series [2], the “AUC (ng/ml h) 0-1 h” value was found to be 20 ng·h/mL, the Cmax turned out to be 28 ng/mL, the “Percent HC (AUC)” value is given as 100% and the “Percent HC (Cmax)” value was determined as 5%.
As to `CC[C@H](C)[C@H](NC(=O)[C@H](Cc1ccc(O)cc1)NC(=O)[C@@H](N)Cc1ccc(O)cc1)C(=O)OC1=CC[C@H]2[C@H]3Cc4ccc(OC)c5c4[C@@]2(CCN3C)[C@H]1O5` [YYI-HC, Tyr-Tyr-Ile-Hydrocodone], the “Percent Decrease 1 mg/kg vs. 5 mg/kg AUC” value in series [1] was found to be 41%. Moreover, in series [1], the “Percent Decrease 1 mg/kg vs. 5 mg/kg Cmax” value was found to be 60%. For the same compound, the “hydrocodone plus hydromorphone concentration” value in series [1] (1 mg/kg dose, 0.5 Hours) came to 9.2 ng/mL; in series [1] (1 mg/kg dose, 1.5 Hours) it was 4.3 ng/mL; in series [1] (1 mg/kg dose, 3 Hours) it was 1.5 ng/mL; in series [1] (1 mg/kg dose, 5 Hours), 1.1 ng/mL; in series [1] (1 mg/kg dose, 8 Hours), 1.8 ng/mL; in series [1] (5 mg/kg dose, 0.5 Hours), 15 ng/mL. In addition, the “hydrocodone plus hydromorphone concentration” value in series [1] (5 mg/kg dose, 1.5 Hours) was found to be 6.3 ng/mL; in series [1] (5 mg/kg dose, 3 Hours), 3.3 ng/mL; in series [1] (5 mg/kg dose, 5 Hours), 1.6 ng/mL; in series [1] (5 mg/kg dose, 8 Hours), 2.7 ng/mL; in series [4] (5 Minutes), 9 ng/mL; in series [4] (15 Minutes), 13 ng/mL. Also, the “hydrocodone plus hydromorphone concentration” value in series [4] (30 Minutes) was found to be 13 ng/mL; in series [4] (60 Minutes), 3 ng/mL; in series [2] (5 Minutes), 31 ng/mL; in series [2] (15 Minutes), 17 ng/mL; in series [2] (30 Minutes), 12 ng/mL; in series [2] (60 Minutes), 2 ng/mL. Further, the “AUC (ng/ml h) 0-8 h” value in series [1] (1 mg/kg dose) was determined as 20.4 ng·h/mL; in series [1] (5 mg/kg dose), 33 ng·h/mL. Further, the Cmax in series [1] (1 mg/kg dose) was determined as 9.2 ng/mL; in series [1] (5 mg/kg dose), 15 ng/mL; in series [4], 13 ng/mL; in series [2], 31 ng/mL. In addition, the “Percent HC (AUC)” value in series [1] (1 mg/kg dose) is recorded as 78%; in series [1] (5 mg/kg dose) it was 46%; in series [4] it was 7%; in series [2], 4%. The “Percent HC (Cmax)” value in series [1] (1 mg/kg dose) turned out to be 100%; in series [1] (5 mg/kg dose), 41%; in series [4], 6%; in series [2], 6%. Also, the “Peak levels and bioavailability” value in series [1] is “substantially decreased”. Further, the “AUC (ng/ml h) 0-1 h” value in series [4] came out at 10 ng·h/mL; in series [2], 12 ng·h/mL.

The record behind these values is patent publication US7375083B2, “Pharmaceutical compositions for prevention of overdose or abuse” (Shire LLC, priority 2003, dated 2008).
